The nanobody polyreactivity screen of Harvey et al. (2022)

Test: yeast display, Sf9 membrane polyspecificity reagent, FACS + sequencing; frameworks hold sequencing errors
Outline: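 A synthetic nanobody library was expressed on Saccharomyces cerevisiae BJ5465 by galactose induction for 36–48 hours. The library was stained for 1 hour at 4 °C with 10% biotinylated, detergent-solubilized Sf9 membrane reagent and enriched with streptavidin microbeads before FACS. Low and high (top ~1%) gates were set on anti-HA fluorescence for expression and streptavidin fluorescence for reagent binding, and each polyreactivity label reflects the gate of origin.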

Sequence	polyreactivity (PSR sort gate)
QVQLVESGGGLVQAGGSLRLICAASGIIFRWYTMGWYRQAPGKERELVAAISTSTGSTYYADSVKGRFTISRDNAKNTVYLQMNSLKPEDTAVYYCAADYAYWNYESYYWGQGTQVTVSS	high polyreactivity
QVQLVESGGGLVQAGGSLRLSCAASGFIFRYYAMGWYRQAPGKERELVAAISSGGRTSYADSVKGRFTISRDNAKNTVYLQMNSLKPEDTAVYYCAADRWRGLFYYGNDYWGQGTQVTVSS	high polyreactivity
QVQLVESGGGLVQAGGSLRLSCAASGSIFPDYAMGWYRQAPGKERELVAAITWRDDSTYYADSVKGRFTISRDNAKNTVYLQMNSLKPEDTAVYYCNASALDPLFAKDDYWGQGTQVTVSS	low polyreactivity
QVQLVESGGGLVQAGGSLRLSCAASGSTFSKYTMGWYRQAPGKERELVAAISVSVGRTYYADSVKGRFTISRDNAKNTVYLQMNSLKPEDTAVYYCAAAYSGLYYWGQGTQVTVSS	high polyreactivity
QVQLVESGGGIVQAGGSLRLSCAASGRTFYSSAMGWYRQAPGKERALVAAITSDGGTYYADSVKGRFTISRDNAKNTVYLQMNSLKPEDTAVYYCNTRDLYGYPQVTGYDYWGQGSQVTVSS	low polyreactivity
QVQLVESGGGLVQAGGSLRLSCAASGSIFPSYAMGWYRLAPGKERELVATISSDGGTNYADSVKGRFTISRDNAKNTVYLQMYSLKPEDTAVYYCATRTTYGQSGSAGPRPYNYWGQGTQVTVSS	low polyreactivity
QVQLVESGGGLVQAGGSLRLSCAASGRIFKQYTMGWYRQAPGKERELVAAITSSGAGTFYADSVKGRFTISRDNAKNTVYLQMNSLKPEDTAVYYCAASWSRRDRGFDYWGQGTQVTVSS	high polyreactivity
QVQLVESGGGLVQAGGSLRLSCAASGSIFGWYAMGWYRQAPGKERELVAAIDSATSTYYADSVKGRFTISRDNAKNTVYLQKNSLKPEDTAVYYCAVYSWWIDAEYDYWGQGSQVTVSS	low polyreactivity
QVQLVESGGGLVQAGGSLRLSCAASGIIFGYNVMGWYRQAPGKERELVAAISGSGSSTYYADSVKGRFTISRDNAKNTVYLQMNSLKPEDTAVYYCARQRYEYRTTYYYWGQGTQVTVSS	high polyreactivity
QVQLVESGGGLVQAGGSLRLSCAASGSTFYSYAMGWYRQAPGKERELVAAITSGGSTNYADSVKGRFTISRDNAKNTVYLQMNSLKPEDTAVYYCARKYWHRSYGYDYWGQGTQVTVSS	low polyreactivity
QVQLVESGGGLVQAGRSLRLSCAASGRTFCYYAMGLYRKAPGKERELIAAITNRGGNTYYADSVKGRFTISRDNAKNTVYLQMNSLKPEDTAVYYCAAYNRIYGYHTLYYWGQGTQVTVST	high polyreactivity
QVHLVESGGGLVQEGGSLLLSCAASGSIFQIYTMGRYRQAPGKERELVAAISSSVSTNYADSVKGRFTISRDNAKNTVYLQMHTLKPEDTAVYYCNRDDYNTADRDASGYWGQGTQVTVSS	low polyreactivity
QVKLVESGGGLDQAGGSLRLSCAASGTIFRKNAMGWYRQAPGKERELVAAMTGTGRTTYADSVKGRFTISRDNAKNTFYLQMNSLKPEDTAVYYCAADVNYYQHRLYYWGQGTQVTVSS	low polyreactivity
QVQLVESGGGLVQAGGSLRLSCAASGSNFLKNAMGWYRQAPGKERELVAAITSGGSTYYADSVKGRFTISRDNAKNTVYLQMNSLKPEDTAVYYCADETSPSWYTWVTYDYWGQGTQVTVSS	high polyreactivity
QVQLVESGGGLVQAGGSLRLSCAASGLTFYEYAMGWYTQAPGKERELVAAITASGGSTYYADSVKGRFTISRDNAKNTVYLQMNSLKPEDSAVYYCAAVDYVRYYPDEFDYWGQGTQVTVSS	low polyreactivity
QVQLVESGGGLVQAGGSLRLSCAASGSIFAHYTMGWYRQAPGKERELVASISYRATRTHYADSVKGRFTISRDNAKNTVYLQMNSLKPEDTAVYYCNKGGYPGLQWGNYPPYRSKDDYWGQGTQVTVSS	high polyreactivity

Sequence	polyreactivity (PSR sort gate)
QVQLVESGGGLVQAGGSLRLSCAASGYTFWANAMGRYRQAPGKERELVAAISWTGGSTYYADSVKGRFTISRDNAKNTVYLQMNSLKPEDTAVYYCNRARINTRVQTDDYWGQGTQVTVSS	high polyreactivity
QVQLVDSGGGLVQAGGSLRLSCAPSGFTIYKYVMGWDRQAPGKDREVVAAITTCGGSTYYADSVKGRFTISRDYAKNTVYLQMNSLKPEHTAVDYCNARSLHTSEGDYWGQGTQVTVSS	low polyreactivity
QVQLVESGGGLVQAGGSLRLSCAASGSTFTKYTMGWYRQAPGKERELVAAITSSGGSTYYADSVKGRFTISRDNAKNTVYLQMNSLKPEDTAVFYCAAPALYYYYYYGYDYWGQGTQVTVSS	high polyreactivity
QVHLVESGGGIVQAGGSLRLSCAASGSTFGYYAMGWYRQAPGKERELVAAITTRGTRTYADSVKGRFTISRDNAKNTVYLQMNSLKPEDTAVYYCNAYEWGDFVLYTTDYDYWGQGTHVTVSS	high polyreactivity
QVQLVESGGGLVQAGGSLRLSCAASGSIFSYNAMGWYRQAPGKERELVAAISRNGGRTYYADSVKGRFTISRDNAKNTVYLQMNSLKPEDTAVYYCNNAGYRAGTGSYDYWGQGTQVTVSS	high polyreactivity
QVQLVESGGGLVQAGGSLRLSCAASGITFIQYAMGWYRQAPGKERELVAAISSGGRTYYADSVKGRFTISRDNAKNTVYLQMNSLKPEDTAVYYCARDIQHYGGDSWGQGTQVTVSS	low polyreactivity
QVQLVESGGGLVQAGGSLRLSCAASGSIFYDAMGWYRQAPGKERELVAAITSSGGDTSYADSVKGRCTISRDNAKNTVYLQMNSLKPEDTAGYYCNADTYYVEYTAFDYWGQGTQVTVSS	low polyreactivity
QVQLVESGGGLVQAGGSLRLSCAASGRIFEPYAMGWYRQAPGNERELVAAINSGGSTNYADSVKGRFTISRDNAKNTVYLQMNSLKPEDTAVYYCAASVYGQHAGPGRWYTFYYWGQGTQVTVSS	low polyreactivity
QVQLVESGGGLVQAGGSLRLSCAASGSTFDYYAMGWYRQAPGKERELVAAISSSGSRTHYADSVKGRFTISRDNAKNTVYLQMNSLKPEDTAVYYCATYTKYWRYPYDYWGQGTQVTVSS	high polyreactivity
QVQLVESGGGLVQAGGSLRLSCAASGRTSAWYAMGWYRQAPGKERELVADISGSADSTYYADSVKGRFTISRDNAKNTVYLQMNSLKPEDTAVYYCATSISTPSGDPFDYWGQGTQVTVSS	low polyreactivity
QVQLVESGGGLVQAGGSLRLSCAASGLIFWKYAMGWYREAPGKERELVAAITSGGSTNYADSVKGRFTISRDNAKNPVYLQMNSLKPEDTAVYYCNARSWFEYYWGQGTQVTVSS	high polyreactivity
QVQLVESGGGLVQAGGSLRLSCAASGRIGYYAMGWYRQAPGKERELVATISRGGSTKYADSVKGRFTISRDNAKNTVYLQMNSLKPEDTAVYYCAAARAPRYDYWGQGTQVTVSS	high polyreactivity
QVQLVESGGGLVQAGGSLRLSCAASGGTFSPYDMGWYRQAPGKERELFASITGSGGSTYYADSVKGRFTISRDNAKNTVYLQMNSLKPVDTAVYDCATQPLTWSSYRWDWRAQFDHWGQGTQVTVSS	low polyreactivity
QVQLVESGGGLVQAGGSLRLSCAASGFTFPWYAMGWYRQAPGKERELVAVISSSGGSTYYADSVKGRFTISRDNAKNTVYLQMNSLKPEDTAVYYCNKDYYKRAYLFGYWGQGTQVTVSS	high polyreactivity
QVQLVESGGGLVQAGGSLRLSCAASGRTFTYNVLGWYRVAPGKERELVAAITSGGSNYADSVKGRFTISRDNAKNTVYLQLNSLKPEDTAGYYCATDYYDDVTIGYDYWGPGTQVTVSS	low polyreactivity
